B1: TRIM15 (parent)
chain: LLARLRELEQQIWKERDEYITKVS

Variants of: B1
Assay: protein stability index of a GFP-peptide fusion (GPS, HEK-293T) (PSI 1-6); higher = more stable
Settings: c terminus: a fixed tail appended
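Further: lentivirally expressed fusions sorted by FACS into six bins by GFP to DsRed ratio, PSI derived from sequencing read proportions per bin multiplied by bin number.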

Row | Variant | protein stability index
1 | LLARLRELEQQIWKARDEYITKVS [E15A] | 1.28
2 | LLARLRELEQQIWKDRDEYITKVS [E15D] | 2.08
3 | LLARLRELEQQIWKIRDEYITKVS [E15I] | 1.42
4 | LLARLRELEQQIWKFRDEYITKVS [E15F] | 2.15
5 | LLARLRELEQQIWKRRDEYITKVS [E15R] | 1.05
6 | LLARLRELEQQIWKGRDEYITKVS [E15G] | 1.18
7 | LLARLRELEQQIWKNRDEYITKVS [E15N] | 1
8 | LLARLRELEQQIWKLRDEYITKVS [E15L] | 2.15
9 | LLARLRELENQIWKERDEYITKVS [Q10N] | 2.35
10 | LLARLRELEEQIWKERDEYITKVS [Q10E] | 1.51
11 | LLARLRELEDQIWKERDEYITKVS [Q10D] | 2.21
12 | LLARLRELETQIWKERDEYITKVS [Q10T] | 1.09
13 | LLARLRELEPQIWKERDEYITKVS [Q10P] | 1.4
14 | LLARLRELEFQIWKERDEYITKVS [Q10F] | 3.2
15 | LLARLRELEWQIWKERDEYITKVS [Q10W] | 3.11
16 | LLARLRELEGQIWKERDEYITKVS [Q10G] | 1.58
17 | LLARLRELEVQIWKERDEYITKVS [Q10V] | 2.31
18 | LLARLRELERQIWKERDEYITKVS [Q10R] | 2.02
19 | LLARLRELEMQIWKERDEYITKVS [Q10M] | 3.32
20 | LLARLRELESQIWKERDEYITKVS [Q10S] | 1.18
21 | LLARLRELEIQIWKERDEYITKVS [Q10I] | 2.65
22 | LLARLRELEKQIWKERDEYITKVS [Q10K] | 2.02
23 | LLARERELEQQIWKERDEYITKVS [L5E] | 2.96
24 | LLARVRELEQQIWKERDEYITKVS [L5V] | 2.95

Row | Variant | protein stability index
25 | LLARNRELEQQIWKERDEYITKVS [L5N] | 2.43
26 | LLARSRELEQQIWKERDEYITKVS [L5S] | 3.44
27 | LLARDRELEQQIWKERDEYITKVS [L5D] | 2.44
28 | LLARTRELEQQIWKERDEYITKVS [L5T] | 2.44
29 | LLARIRELEQQIWKERDEYITKVS [L5I] | 2.98
30 | LLARFRELEQQIWKERDEYITKVS [L5F] | 2.17
31 | LLARQRELEQQIWKERDEYITKVS [L5Q] | 2.64
32 | LLARWRELEQQIWKERDEYITKVS [L5W] | 1.34
33 | LLARPRELEQQIWKERDEYITKVS [L5P] | 2.65
34 | LLARHRELEQQIWKERDEYITKVS [L5H] | 2.72
35 | LLARARELEQQIWKERDEYITKVS [L5A] | 1.91
36 | LLARYRELEQQIWKERDEYITKVS [L5Y] | 1.77
37 | LLARRRELEQQIWKERDEYITKVS [L5R] | 2.28
38 | LLARGRELEQQIWKERDEYITKVS [L5G] | 2.6
39 | LLARMRELEQQIWKERDEYITKVS [L5M] | 1.83
40 | LLARLREEEQQIWKERDEYITKVS [L8E] | 2.24
41 | LLARLRECEQQIWKERDEYITKVS [L8C] | 1.49
42 | LLARLREHEQQIWKERDEYITKVS [L8H] | 2.12
43 | LLARLRENEQQIWKERDEYITKVS [L8N] | 2.03
44 | LLARLREKEQQIWKERDEYITKVS [L8K] | 3.04
45 | LLARLREGEQQIWKERDEYITKVS [L8G] | 2.9
46 | LLARLREAEQQIWKERDEYITKVS [L8A] | 1.14
47 | LLARLREDEQQIWKERDEYITKVS [L8D] | 2.48
48 | LLARLREWEQQIWKERDEYITKVS [L8W] | 1.62

Row | Variant | protein stability index
49 | LLARLREVEQQIWKERDEYITKVS [L8V] | 1.69
50 | LLARLREIEQQIWKERDEYITKVS [L8I] | 2.51
51 | LLARLRESEQQIWKERDEYITKVS [L8S] | 1.75
52 | LLARLREYEQQIWKERDEYITKVS [L8Y] | 2.22
53 | LLARLRETEQQIWKERDEYITKVS [L8T] | 2.74
54 | LLARLREPEQQIWKERDEYITKVS [L8P] | 2.55
55 | LLARLREREQQIWKERDEYITKVS [L8R] | 1.44
56 | LLARLRELEQQIWKEADEYITKVS [R16A] | 1.78
57 | LLARLRELEQQIWKECDEYITKVS [R16C] | 2
58 | LLARLRELEQQIWKEMDEYITKVS [R16M] | 1.61
59 | LLARLRELEQQIWKEYDEYITKVS [R16Y] | 2.13
60 | LLARLRELEQQIWKEHDEYITKVS [R16H] | 1
61 | LLARLRELEQQIWKEKDEYITKVS [R16K] | 1.92
62 | LLARLRELEQQIWKEQDEYITKVS [R16Q] | 1.58
63 | LLARLRELEQQIWKEEDEYITKVS [R16E] | 2
64 | LLARLRELEQQIWKELDEYITKVS [R16L] | 3.68
65 | LLARLRELEQQIQKERDEYITKVS [W13Q] | 2.46
66 | LLARLRELEQQIIKERDEYITKVS [W13I] | 1.32
67 | LLARLRELEQQIRKERDEYITKVS [W13R] | 1.77
68 | LLARLRELEQQIKKERDEYITKVS [W13K] | 2.24
69 | LLARLRELEQQISKERDEYITKVS [W13S] | 1.68
70 | LLARLRELEQQIHKERDEYITKVS [W13H] | 1.37
71 | LLARLRELEQQIPKERDEYITKVS [W13P] | 1.81
72 | LLARLRELEQQICKERDEYITKVS [W13C] | 2.68

Row | Variant | protein stability index
73 | LLARLRELEQQITKERDEYITKVS [W13T] | 1.69
74 | LLARLRELEQQIVKERDEYITKVS [W13V] | 1.96
75 | LLARLRELEQQILKERDEYITKVS [W13L] | 1.71
76 | LLARLRELEQQIFKERDEYITKVS [W13F] | 2.83
77 | LLARLRELEQQIYKERDEYITKVS [W13Y] | 1.51
78 | LLARLRELEQQIEKERDEYITKVS [W13E] | 2.03
79 | LLARLRELEQQIAKERDEYITKVS [W13A] | 1.52
80 | LLARLRELEQQIGKERDEYITKVS [W13G] | 2.31
81 | LLARLDELEQQIWKERDEYITKVS [R6D] | 1.79
82 | LLARLTELEQQIWKERDEYITKVS [R6T] | 1.76
83 | LLARLVELEQQIWKERDEYITKVS [R6V] | 3.95
84 | LLARLPELEQQIWKERDEYITKVS [R6P] | 2.44
85 | LLARLHELEQQIWKERDEYITKVS [R6H] | 1.65
86 | LLARLEELEQQIWKERDEYITKVS [R6E] | 1.82
87 | LLARLCELEQQIWKERDEYITKVS [R6C] | 1.8
88 | LLARLQELEQQIWKERDEYITKVS [R6Q] | 1.44
89 | LLARLKELEQQIWKERDEYITKVS [R6K] | 2.13
90 | LLARLSELEQQIWKERDEYITKVS [R6S] | 2.56
91 | LLARLRELEQQIWKEREEYITKVS [D17E] | 1.78
92 | LLARLRELEQQIWKERLEYITKVS [D17L] | 1.04
93 | LLARLRELEQQIWKERPEYITKVS [D17P] | 1.86
94 | LLARLRELEQQIWKERNEYITKVS [D17N] | 1
